Results on five molecules are retold here after patent US20240174744A1 (SCIRHOM, published 2024).

The chains are these.
T1: miR2-FL-WT-FLAG (mouse iRhom2 full length wild type C-terminally tagged with the triple-FLAG epitope) (mouse, UniProt Q80WQ6 1-827)
T1 construct: also called expressed by MEF-DKO-miR2-FL-WT-FLAG cells
T1 sequence: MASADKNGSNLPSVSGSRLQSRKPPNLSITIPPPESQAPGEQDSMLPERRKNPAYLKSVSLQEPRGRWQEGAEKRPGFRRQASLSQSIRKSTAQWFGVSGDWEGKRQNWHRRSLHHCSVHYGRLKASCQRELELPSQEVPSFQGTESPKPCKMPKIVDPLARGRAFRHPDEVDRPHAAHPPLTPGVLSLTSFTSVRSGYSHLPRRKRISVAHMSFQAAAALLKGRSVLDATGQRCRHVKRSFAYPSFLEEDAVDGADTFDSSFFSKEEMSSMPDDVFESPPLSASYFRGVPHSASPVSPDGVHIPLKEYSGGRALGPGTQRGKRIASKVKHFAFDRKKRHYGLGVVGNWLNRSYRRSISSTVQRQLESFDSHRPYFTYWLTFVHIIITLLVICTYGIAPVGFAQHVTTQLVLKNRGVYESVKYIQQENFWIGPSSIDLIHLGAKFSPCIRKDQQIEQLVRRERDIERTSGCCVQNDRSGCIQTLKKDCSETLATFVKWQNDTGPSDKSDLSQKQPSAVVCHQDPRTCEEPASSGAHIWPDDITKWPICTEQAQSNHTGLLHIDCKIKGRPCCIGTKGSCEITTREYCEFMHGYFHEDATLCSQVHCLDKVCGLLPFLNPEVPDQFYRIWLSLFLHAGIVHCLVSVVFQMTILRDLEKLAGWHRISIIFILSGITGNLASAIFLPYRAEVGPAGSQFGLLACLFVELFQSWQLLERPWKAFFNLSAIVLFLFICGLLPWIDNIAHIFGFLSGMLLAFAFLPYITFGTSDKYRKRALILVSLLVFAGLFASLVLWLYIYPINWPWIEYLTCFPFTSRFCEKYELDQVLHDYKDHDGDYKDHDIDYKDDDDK

T2: hiR2-FL-L539A-T7 (human iRhom2 full length L539A, 3 x T7 tag) (human, UniProt Q6PJF5 1-856)
T2 sequence: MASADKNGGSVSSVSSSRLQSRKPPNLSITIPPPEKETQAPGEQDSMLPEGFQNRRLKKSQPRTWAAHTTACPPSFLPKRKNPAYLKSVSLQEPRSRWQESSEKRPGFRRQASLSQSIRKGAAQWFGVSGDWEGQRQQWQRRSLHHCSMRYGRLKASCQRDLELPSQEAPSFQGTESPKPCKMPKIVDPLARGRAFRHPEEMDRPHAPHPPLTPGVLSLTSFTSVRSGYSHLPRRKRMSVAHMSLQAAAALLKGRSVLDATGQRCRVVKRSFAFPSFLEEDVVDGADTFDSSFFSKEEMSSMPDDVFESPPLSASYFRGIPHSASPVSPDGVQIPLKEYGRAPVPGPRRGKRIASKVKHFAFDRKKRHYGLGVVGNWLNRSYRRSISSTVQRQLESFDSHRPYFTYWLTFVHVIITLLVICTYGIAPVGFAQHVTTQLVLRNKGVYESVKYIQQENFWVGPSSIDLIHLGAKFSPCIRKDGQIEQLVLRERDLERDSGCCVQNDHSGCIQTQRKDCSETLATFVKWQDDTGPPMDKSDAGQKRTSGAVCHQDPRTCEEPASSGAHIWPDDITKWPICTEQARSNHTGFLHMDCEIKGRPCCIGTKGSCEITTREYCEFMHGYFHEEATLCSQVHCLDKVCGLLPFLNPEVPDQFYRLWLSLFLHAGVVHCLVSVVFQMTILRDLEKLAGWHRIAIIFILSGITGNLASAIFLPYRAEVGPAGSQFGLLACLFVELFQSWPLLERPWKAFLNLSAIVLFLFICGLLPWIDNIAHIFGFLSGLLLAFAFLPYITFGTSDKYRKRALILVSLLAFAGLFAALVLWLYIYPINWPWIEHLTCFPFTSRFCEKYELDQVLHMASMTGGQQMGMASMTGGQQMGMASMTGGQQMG

B1: antibody 34 (antibody, V domains shown)
VH: QVTLKESGPGILQPSQTLSLTCSFSGFSLSTFSLGVGWIRQSSGKGLEWLAHIWWDDEKYYNPALKSRLTISKDTSKNQVFLKIANVDAADTATYYCARAYYSKSYYALDYWGQGTSVTVSS
VL: DIQMTQSPSSLSASLGERVSLTCRASQEISGYLSWLQQKPDGTIKRLIYAASTLDSGVPKRFSGSRSGSDYSLAISSLESEDFADYYCLQYANFPFTFGSGTKLEIK
notes: Mouse IgG, kappa light chain; also called clone #34; m34
B2: antibody 44 (antibody, V domains shown)
VH: QVTLKESGPGILQPSQTLSLTCSFSGFSLSTFGMGVGWIRQPSEKGLEWLAHIWWDDDKYYNPALKSRLTISKDTSKNQIFLKITNVDTAETATYYCSRIGNYGSNYWYFDVWGTGTTVTVSS
VL: QIVLTQSPAVMSASPGEKVTMTCTASSSVYYMYWYQQTPGSSPRLLIYDTSNLASGVPVRFSGSGSGTSYSLTISRMEAEDAATYYCQQWNTYPLTFGAGTKLELK
notes: Mouse IgG, kappa light chain; also called clone #44; m44
B3: antibody 5 (antibody, V domains shown)
VH: B2 VH with E44G, D58E, P63S, D74A, I80A, T85A, E91D, S98A, G101S, D111N
VL: QVVLTQSPALMSASPGEKVTMTCSAGSSVSCMYWYQQKPGSSPRVLIYDTSNLASGVPARFTGSGSGTSYSLTISRMEAEDAASYYCQQWNSYPLTFGAGTKLELK
notes: Mouse IgG, kappa light chain; also called clone #5; purified antibody 5
B4: antibody 42 (antibody, V domains shown)
VH: B2 VH with F24L, M34R, E44G, D58E, I80V, K83R, T85A, E91D, S98A, G101Q
VL: LIVLTQSPAIMSASPGEKVTMTCGATSRISYMFWYQQKPGSSPRVLIYDTSNLASGVPVRFSGSGSGTSYSLTISRVEAEDVATYYCQQWNSYPLTFGAGTKLELK
notes: Mouse IgG, kappa light chain; also called clone #42; m42
B5: antibody 22 (antibody, V domains shown)
VH: B2 VH with E44G, D58E, P63S, D74A, I80V, T85A, E91D, S98A, G101S, D111N
VL: B3 VL with C31Y, S84T
notes: Mouse IgG, kappa light chain; also called clone #22; m22

Positions count from the first letter of the chain named.

One experiment deals with T1, miR2-FL-WT-FLAG (mouse iRhom2 full …). Put plainly: FACS, MEF-DKO-miR2-FL-WT-FLAG cells. On the procedure:
In brief, immortalized MEF-DKO-EV control cells, MEF-DKO-hiR2-FL-WT-FLAG cells and MEF-DKO-miR2-FL-WT-FLAG cells were harvested with 10 mM EDTA in PBS, washed and resuspended in FACS buffer (PBS, 3% FBS, 0.05% sodium azide), and seeded in Nunc U-bottom 96-well plates (Thermo Fisher Scientific, USA) at approximately 3×10⁵ cells per well. To pellet cells and remove supernatants, the plates were centrifuged at 1,500 rpm and 4° C. for 3 minutes. For primary staining, cells were resuspended in 100 μl per well of either FACS buffer alone (controls), mouse monoclonal anti-FLAG IgG (Sigma-Aldrich, USA) at 3 μg/ml FACS buffer or the antibodies of the present disclosure also at 3 μg/ml FACS buffer and incubated on ice for 1 hour. Afterwards, plates were centrifuged at 1,500 rpm and 4° C. for 3 minutes and washed twice with 200 μl per well of FACS buffer. For secondary staining, cells were spun down and resuspended in 100 μl per well of PE-conjugated goat anti-mouse IgG F(ab′)2 detection fragment (Dianova, Germany) diluted 1:100 in FACS buffer. Protected from light, the cell suspensions were incubated on ice for 1 hour. Plates were then centrifuged at 1,500 rpm and 4° C. for 3 minutes and washed three times with 200 μl per well of FACS buffer. Finally, cells were resuspended in 150 μl per well of FACS buffer and analyzed using a BD Accuri™ C6 Plus flow cytometer (Becton Dickinson, Germany).
Background: In flow cytometry, cells or beads pass a laser one at a time.
Consider B1, for which the binding result is listed as “no binding (tested: 3 µg/ml)”.

With B2, the binding result is reported as “no binding (tested: 3 µg/ml)”.

For the molecule B3, the binding result is listed as “no binding (tested: 3 µg/ml)”.

Turning to B4, the binding result was “no binding (tested: 3 µg/ml)”.

Consider B5, for which the binding result is “no binding (tested: 3 µg/ml)”.

The next experiment concerns the target T2, hiR2-FL-L539A-T7 (human iRhom2 full …). Description: FACS on cells of the row L539A.
With B1, the binding result is recorded as “no binding (tested: 3 µg/ml)”.

Take B2: the binding result was “no binding (tested: 3 µg/ml)”.

With B3, the binding result was “no binding (tested: 3 µg/ml)”.

For B4, the binding result is on record as “no binding (tested: 3 µg/ml)”.

B5: the binding result is listed as “no binding (tested: 3 µg/ml)”.
